According to patent US20220372155A1 (LYVGEN BIOPHARMA, published 2022):

B1: TM377 (antibody, human IgG4 S228P, kappa, V domains shown)
VH: EVQILETGGGLVKPGGSLRLSCATSGFNFNDSFMNWVRQAPGKGLEWVAQIRNKNYNYATYYTESLEGRVTISRDDSKSRVYLQVSSLRAEDSAVYYCTSYYYDGFADYFDYWGQGVMVTVSS
VL: DIKMTQSPSFLSASVGDSVTFTCKASQNIYIYLNWYQQKFGEAPKLLIYNTNNLQTGIPSRFSGSESGTVFTLTISSLQPEDVATYFCLQHSSRRTFGGGTKLELKR
notes: chimeric: LYV377 VH/human IgG4, LYV377 VL/kappa; also called chimeric parent TM377
B2: Ly468 (bispecific antibody, human IgG1, kappa)
heavy: QVQLKESGPGLVAPSQSLSITCTVSGFSLTDYGVRWIRQPPGKGLEWLGVIWGGGSTYYNSALKSRLSISKDNSKSQVFLKMNSLQTDDTAMYYCAKEKRRGYYYAMDYWGQGTSVTVSSASTKGPSVFPLAPSSKSTSGGTAALGCLVKDYFPEPVTVSWNSGALTSGVHTFPAVLQSSGLYSLSSVVTVPSSSLGTQTYICNVNHKPSNTKVDKKVEPKSCDKTHTCPPCPAPELLGPSVFLFPPKPKDTLMISRTPEVTCVVVDVSHEDPEVKFNWYVDGVEVHNAKTKPREEQYNSTYRVVSVLTVLHQDWLNGKEYKCKVSNKALPAPIEKTISKAKGQPREPQVYTLPPSREEMTKNQVSLTCLVKGFYPSDIAVEWESNGQPENNYKTTPPVLDSDGSFFLYSKLTVDKSRWQQGNVFSCSVMHEALHNHYTQKSLSLSPG
light: ENVLTQSPAIMSASPGEKVTMTCRASSSVSSSYLHWYQQKSGASPKLWIYSTSNLASGVPARFSGSGSGTSYSLTISSVEAEDAATYYCQQYSGYPLTFGGGTKLEIKRTVAAPSVFIFPPSDEQLKSGTASVVCLLNNFYPREAKVQWKVDNALQSGNSQESVTEQDSKDSTYSLSSTLTLSKADYEKHKVYACEVTHQGLSSPVTKSFNRGECGGGGSGGGGSGGGGSGGGGSDIQMTQSPSSLSASVGDRVTITCLASEDISNDLAWYQQKPGKAPKLLIYFVDRLLDGVPSRFSGSGSGTDFTLTISSLQPEDFATYYCQQSYKYPPTFGQGTKLEIKGGGGSGGGGSGGGGSGGGGSEVQLVESGGGLVQPGGSLRLSCAASGFTFTNYGLHWVRQAPGKGLEWVSSISPSGGVTYYRDSVKGRFTISRDNSKNTLYLQMNSLRAEDTAVYYCAKPFLGWGGANWIAHWGQGTLVTVSS
notes: Ly368 HC + Ly368 LC-TM559 scFv VL-VH
B3: Ly472 (bispecific antibody, human IgG1, kappa)
heavy: B2 heavy
light: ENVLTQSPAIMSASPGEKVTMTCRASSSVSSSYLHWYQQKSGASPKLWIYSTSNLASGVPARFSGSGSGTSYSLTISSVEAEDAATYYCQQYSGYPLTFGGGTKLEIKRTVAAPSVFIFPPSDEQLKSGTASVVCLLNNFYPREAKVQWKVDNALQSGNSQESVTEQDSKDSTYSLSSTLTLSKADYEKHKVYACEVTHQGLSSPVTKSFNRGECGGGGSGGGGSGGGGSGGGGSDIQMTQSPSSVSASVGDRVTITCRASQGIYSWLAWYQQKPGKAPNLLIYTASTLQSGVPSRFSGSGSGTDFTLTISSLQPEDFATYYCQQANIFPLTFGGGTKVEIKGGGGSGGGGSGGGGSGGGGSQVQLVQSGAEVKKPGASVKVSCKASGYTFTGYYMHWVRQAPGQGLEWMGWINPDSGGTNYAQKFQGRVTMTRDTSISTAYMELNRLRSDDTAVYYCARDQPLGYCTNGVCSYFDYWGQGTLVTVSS
notes: Ly368 HC + Ly368 LC-Ly253 scFv VL-VH
B4: Ly473 (bispecific antibody, human IgG1, kappa)
heavy: B2 heavy
light: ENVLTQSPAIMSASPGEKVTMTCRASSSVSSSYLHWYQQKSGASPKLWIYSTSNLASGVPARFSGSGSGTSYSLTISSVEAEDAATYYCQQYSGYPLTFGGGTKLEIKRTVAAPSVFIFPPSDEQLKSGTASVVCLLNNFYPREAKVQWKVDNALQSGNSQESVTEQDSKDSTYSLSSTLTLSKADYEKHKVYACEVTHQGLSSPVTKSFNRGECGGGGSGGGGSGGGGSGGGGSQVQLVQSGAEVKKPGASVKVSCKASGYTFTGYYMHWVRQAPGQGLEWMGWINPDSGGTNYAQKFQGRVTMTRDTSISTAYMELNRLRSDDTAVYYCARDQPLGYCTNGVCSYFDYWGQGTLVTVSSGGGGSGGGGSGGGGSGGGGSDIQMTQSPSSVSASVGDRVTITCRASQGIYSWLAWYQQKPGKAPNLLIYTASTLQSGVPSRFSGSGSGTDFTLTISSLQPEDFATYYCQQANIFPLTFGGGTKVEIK
notes: Ly368 HC + Ly368 LC-Ly253 scFv VH-VL
B5: Ly469 (bispecific antibody, human IgG1, kappa)
heavy: B2 heavy
light: ENVLTQSPAIMSASPGEKVTMTCRASSSVSSSYLHWYQQKSGASPKLWIYSTSNLASGVPARFSGSGSGTSYSLTISSVEAEDAATYYCQQYSGYPLTFGGGTKLEIKRTVAAPSVFIFPPSDEQLKSGTASVVCLLNNFYPREAKVQWKVDNALQSGNSQESVTEQDSKDSTYSLSSTLTLSKADYEKHKVYACEVTHQGLSSPVTKSFNRGECGGGGSGGGGSGGGGSGGGGSEVQLVESGGGLVQPGGSLRLSCAASGFTFTNYGLHWVRQAPGKGLEWVSSISPSGGVTYYRDSVKGRFTISRDNSKNTLYLQMNSLRAEDTAVYYCAKPFLGWGGANWIAHWGQGTLVTVSSGGGGSGGGGSGGGGSGGGGSDIQMTQSPSSLSASVGDRVTITCLASEDISNDLAWYQQKPGKAPKLLIYFVDRLLDGVPSRFSGSGSGTDFTLTISSLQPEDFATYYCQQSYKYPPTFGQGTKLEIK
notes: Ly368 HC + Ly368 LC-TM559 scFv VH-VL
B6: Ly801 (bispecific antibody, human IgG1, kappa)
heavy: EVQLQQSGPELVKPGASVKMSCKASGYTFTSYVMHWVKQKPGQGLEWIGYINPYNDGTECTDKFKGKATLTSDKSSSTAYMELSSLTSEDSAVYYCASIYYGYDGTYFGVWGAGTSVTVSSASTKGPSVFPLAPSSKSTSGGTAALGCLVKDYFPEPVTVSWNSGALTSGVHTFPAVLQSSGLYSLSSVVTVPSSSLGTQTYICNVNHKPSNTKVDKKVEPKSCDKTHTCPPCPAPELLGPSVFLFPPKPKDTLMISRTPEVTCVVVDVSHEDPEVKFNWYVDGVEVHNAKTKPREEQYNSTYRVVSVLTVLHQDWLNGKEYKCKVSNKALPAPIEKTISKAKGQPREPQVYTLPPSREEMTKNQVSLTCLVKGFYPSDIAVEWESNGQPENNYKTTPPVLDSDGSFFLYSKLTVDKSRWQQGNVFSCSVMHEALHNHYTQKSLSLSPG
light: QIVLSQSPAILSTSPGEKVTMTCRASSSVSYMHWYQQKPGSSPKPWIYATSNLASGVPARFSGSRSGTSYSLTISRVEAEDAATYYCQQWSSNTLTFGGGTKLELKRTVAAPSVFIFPPSDEQLKSGTASVVCLLNNFYPREAKVQWKVDNALQSGNSQESVTEQDSKDSTYSLSSTLTLSKADYEKHKVYACEVTHQGLSSPVTKSFNRGECGGGGSGGGGSGGGGSGGGGSDIQMTQSPSSLSASVGDRVTITCKASQNIYIYLNWYQQKPGKAPKLLIYNTNNLQTGVPSRFSGSGSGTDFTLTISSLQPEDFATYYCLQHSSRRTFGGGTKVEIKGGGGSGGGGSGGGGSGGGGSQVQLVESGGGLVQPGGSLKLSCATSGFNFNDYFMNWVRQASGKGLEWVGQIRNKNYNYATYYTESLEGRVTISRDDSKNTAYLQMNSLKTEDTAVYYCTSYYYDGFADYFDYWGQGTTVTVSS
notes: Ly383 HC (IgG1 mutated Fc) + Ly383 LC-TM740 scFv VL-VH
B7: Ly466 (bispecific antibody, human IgG1, kappa)
heavy: QVQLKESGPGLVAPSQSLSITCTVSGFSLTDYGVRWIRQPPGKGLEWLGVIWGGGSTYYNSALKSRLSISKDNSKSQVFLKMNSLQTDDTAMYYCAKEKRRGYYYAMDYWGQGTSVTVSSASTKGPSVFPLAPSSKSTSGGTAALGCLVKDYFPEPVTVSWNSGALTSGVHTFPAVLQSSGLYSLSSVVTVPSSSLGTQTYICNVNHKPSNTKVDKKVEPKSCDKTHTCPPCPAPELLGPSVFLFPPKPKDTLMISRTPEVTCVVVDVSHEDPEVKFNWYVDGVEVHNAKTKPREEQYNSTYRVVSVLTVLHQDWLNGKEYKCKVSNKALPAPIEKTISKAKGQPREPQVYTLPPSREEMTKNQVSLTCLVKGFYPSDIAVEWESNGQPENNYKTTPPVLDSDGSFFLYSKLTVDKSRWQQGNVFSCSVMHEALHNHYTQKSLSLSPGGGGGSGGGGSGGGGSGGGGSDIQMTQSPSSLSASVGDRVTITCLASEDISNDLAWYQQKPGKAPKLLIYFVDRLLDGVPSRFSGSGSGTDFTLTISSLQPEDFATYYCQQSYKYPPTFGQGTKLEIKGGGGSGGGGSGGGGSGGGGSEVQLVESGGGLVQPGGSLRLSCAASGFTFTNYGLHWVRQAPGKGLEWVSSISPSGGVTYYRDSVKGRFTISRDNSKNTLYLQMNSLRAEDTAVYYCAKPFLGWGGANWIAHWGQGTLVTVSS
light: ENVLTQSPAIMSASPGEKVTMTCRASSSVSSSYLHWYQQKSGASPKLWIYSTSNLASGVPARFSGSGSGTSYSLTISSVEAEDAATYYCQQYSGYPLTFGGGTKLEIKRTVAAPSVFIFPPSDEQLKSGTASVVCLLNNFYPREAKVQWKVDNALQSGNSQESVTEQDSKDSTYSLSSTLTLSKADYEKHKVYACEVTHQGLSSPVTKSFNRGEC
notes: Ly368 HC-TM559 scFv VL-VH + Ly368 LC
B8: Ly471 (bispecific antibody, human IgG1, kappa)
heavy: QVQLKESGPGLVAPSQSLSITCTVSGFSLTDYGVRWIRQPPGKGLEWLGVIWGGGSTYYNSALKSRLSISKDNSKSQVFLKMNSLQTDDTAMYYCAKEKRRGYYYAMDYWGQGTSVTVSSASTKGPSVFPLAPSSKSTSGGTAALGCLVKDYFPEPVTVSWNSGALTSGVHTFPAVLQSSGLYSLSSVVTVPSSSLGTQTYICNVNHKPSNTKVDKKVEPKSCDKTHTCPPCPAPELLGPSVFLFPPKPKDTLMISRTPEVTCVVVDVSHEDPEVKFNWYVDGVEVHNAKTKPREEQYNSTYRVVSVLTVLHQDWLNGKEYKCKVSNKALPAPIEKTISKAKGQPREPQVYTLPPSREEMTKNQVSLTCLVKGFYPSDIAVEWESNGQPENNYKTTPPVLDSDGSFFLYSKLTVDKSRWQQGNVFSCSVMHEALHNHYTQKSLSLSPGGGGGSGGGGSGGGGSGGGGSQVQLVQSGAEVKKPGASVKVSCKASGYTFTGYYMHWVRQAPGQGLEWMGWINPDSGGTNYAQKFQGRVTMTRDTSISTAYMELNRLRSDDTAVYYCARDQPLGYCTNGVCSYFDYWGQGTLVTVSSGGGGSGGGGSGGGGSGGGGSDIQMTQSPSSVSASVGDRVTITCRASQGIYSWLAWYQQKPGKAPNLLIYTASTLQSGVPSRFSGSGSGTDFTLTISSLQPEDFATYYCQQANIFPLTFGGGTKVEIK
light: B7 light
notes: Ly368 HC-Ly253 scFv VH-VL + Ly368 LC
B9: Ly470 (bispecific antibody, human IgG1, kappa)
heavy: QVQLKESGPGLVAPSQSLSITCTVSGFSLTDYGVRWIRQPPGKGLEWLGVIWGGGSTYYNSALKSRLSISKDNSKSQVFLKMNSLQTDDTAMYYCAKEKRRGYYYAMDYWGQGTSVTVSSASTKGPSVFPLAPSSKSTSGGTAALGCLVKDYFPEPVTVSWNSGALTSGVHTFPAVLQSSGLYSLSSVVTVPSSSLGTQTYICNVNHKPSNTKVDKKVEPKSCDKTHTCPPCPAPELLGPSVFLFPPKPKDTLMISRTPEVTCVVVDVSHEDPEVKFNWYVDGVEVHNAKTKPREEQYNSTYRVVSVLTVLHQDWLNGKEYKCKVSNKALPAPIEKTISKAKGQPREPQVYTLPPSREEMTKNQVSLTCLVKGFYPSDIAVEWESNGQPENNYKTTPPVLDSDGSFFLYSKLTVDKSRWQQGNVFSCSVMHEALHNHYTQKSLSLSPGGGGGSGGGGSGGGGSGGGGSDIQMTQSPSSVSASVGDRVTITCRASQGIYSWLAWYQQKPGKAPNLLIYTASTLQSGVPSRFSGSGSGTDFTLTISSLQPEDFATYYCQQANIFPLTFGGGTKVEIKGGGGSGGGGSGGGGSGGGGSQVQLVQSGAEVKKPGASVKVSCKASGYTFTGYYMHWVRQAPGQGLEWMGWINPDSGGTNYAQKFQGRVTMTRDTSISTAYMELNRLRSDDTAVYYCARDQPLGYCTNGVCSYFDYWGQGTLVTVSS
light: B7 light
notes: Ly368 HC-Ly253 scFv VL-VH + Ly368 LC
B10: Ly467 (bispecific antibody, human IgG1, kappa)
heavy: QVQLKESGPGLVAPSQSLSITCTVSGFSLTDYGVRWIRQPPGKGLEWLGVIWGGGSTYYNSALKSRLSISKDNSKSQVFLKMNSLQTDDTAMYYCAKEKRRGYYYAMDYWGQGTSVTVSSASTKGPSVFPLAPSSKSTSGGTAALGCLVKDYFPEPVTVSWNSGALTSGVHTFPAVLQSSGLYSLSSVVTVPSSSLGTQTYICNVNHKPSNTKVDKKVEPKSCDKTHTCPPCPAPELLGPSVFLFPPKPKDTLMISRTPEVTCVVVDVSHEDPEVKFNWYVDGVEVHNAKTKPREEQYNSTYRVVSVLTVLHQDWLNGKEYKCKVSNKALPAPIEKTISKAKGQPREPQVYTLPPSREEMTKNQVSLTCLVKGFYPSDIAVEWESNGQPENNYKTTPPVLDSDGSFFLYSKLTVDKSRWQQGNVFSCSVMHEALHNHYTQKSLSLSPGGGGGSGGGGSGGGGSGGGGSEVQLVESGGGLVQPGGSLRLSCAASGFTFTNYGLHWVRQAPGKGLEWVSSISPSGGVTYYRDSVKGRFTISRDNSKNTLYLQMNSLRAEDTAVYYCAKPFLGWGGANWIAHWGQGTLVTVSSGGGGSGGGGSGGGGSGGGGSDIQMTQSPSSLSASVGDRVTITCLASEDISNDLAWYQQKPGKAPKLLIYFVDRLLDGVPSRFSGSGSGTDFTLTISSLQPEDFATYYCQQSYKYPPTFGQGTKLEIK
light: B7 light
notes: Ly368 HC-TM559 scFv VH-VL + Ly368 LC

What follows are binders tested against T1, human CD40 expressed on CHO cells (human, UniProt P25942 21-277) (assay: FACS, CHO cells).
T1 construct: whole, on cells; also used for the reporter cells over-expressing human CD40; also called cellular CD40; CHO-CD40 cells
T1 sequence (P25942 21-277): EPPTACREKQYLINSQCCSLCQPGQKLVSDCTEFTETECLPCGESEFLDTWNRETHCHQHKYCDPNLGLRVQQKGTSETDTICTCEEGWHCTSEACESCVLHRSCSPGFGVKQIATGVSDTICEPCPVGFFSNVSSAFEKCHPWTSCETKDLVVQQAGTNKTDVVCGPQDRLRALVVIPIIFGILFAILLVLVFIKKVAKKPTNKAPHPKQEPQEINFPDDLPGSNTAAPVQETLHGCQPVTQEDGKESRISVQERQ

Row | Binder | binding result
1 | B1 | binds
2 | B2 | binds
3 | B3 | binds
4 | B4 | binds
5 | B5 | binds
6 | B6 | binds
7 | B7 | binds
8 | B8 | binds
9 | B9 | binds
10 | B10 | binds
